Here are results for four molecules from patent US20050074821A1 (Amgen, published 2005).

Assay [1] deals with recombinant rat beta-NGF (R&D Systems) (rat, UniProt P25427 122-241). The assay is described as follows: cell-based or functional assay.
The target in assay [2] is T1, recombinant human NGF 1-120 (human, UniProt P01138 122-241). The assay is described as follows: cell-based or functional assay.
Target sequence in this assay (P01138 other isoform, or with tags, fused parts or gaps): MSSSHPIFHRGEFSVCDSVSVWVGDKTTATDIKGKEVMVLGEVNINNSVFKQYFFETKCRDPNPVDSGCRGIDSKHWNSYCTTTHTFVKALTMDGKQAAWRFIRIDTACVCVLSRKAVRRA
Assay [3] deals with T2, NGF Lys-C peptide K1 (37.6) SSSHPIFHRGEFSVCDSVSVWVGDK (human, Cysteine residues were reduced and carboxymethylated).
T2 construct: Calculated mass 2821; observed mass 2828.2
T2 peptide: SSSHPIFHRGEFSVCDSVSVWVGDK
The assay is described as follows: Lys-C digest of NGF incubated with antibody, Microcon 100 separation, reversed phase HPLC.

Assay [4] addresses T1, recombinant human NGF 1-120. The assay is described as follows: KinExA; 10 pM and 30 pM Ab 4D4 equilibrated with huNGF in solution for 8 h, free antibody captured on huNGF-coated beads, dual-curve one-site fit.
Target sequence in this assay (P01138 other isoform, or with tags, fused parts or gaps, form in doubt): as the sequence (P01138 other isoform, or with tags, fused parts or gaps) above
Assay [5] deals with T3, NGF Lys-C peptide K2 (39.5) QAAWRFIRIDTACVCVLSRK (human, Cysteine residues were reduced and carboxymethylated).
T3 construct: Calculated mass 2452; observed mass 2459.5
T3 peptide: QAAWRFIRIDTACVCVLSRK
The assay is described as follows: Lys-C digest of NGF incubated with antibody, Microcon 100 separation, reversed phase HPLC.

Assay [6] deals with T1, recombinant human NGF 1-120. In words: cell-based or functional assay. The source holds these as a separate data set.
Target sequence in this assay (P01138 other isoform, or with tags, fused parts or gaps, form in doubt): as the sequence (P01138 other isoform, or with tags, fused parts or gaps) above
Assay [7] concerns the target T4, NGF subtilisin peptide S1 (4.4) SRKAVRR (113-119) (human).
T4 peptide: SRKAVRR
The assay is described as follows: subtilisin-digested NGF incubated with antibody, Microcon 10 separation, HPLC of bound and unbound fractions.

In assay [8] the target is T5, NGF subtilisin peptide S2 (28.3) EVMVL (35-39) (human).
T5 peptide: EVMVL
Described as above.

The target in assay [9] is T1, recombinant human NGF 1-120. The assay is described as follows: cell-based or functional assay. The source holds these as a separate data set.
Target sequence in this assay (P01138 other isoform, or with tags, fused parts or gaps, form in doubt): as the sequence (P01138 other isoform, or with tags, fused parts or gaps) above
In assay [10] the target is T6, synthetic hNGF peptide 33582-27-01 SSSHPIFHRGEFSVC (1-15) (human, conjugated through cysteine to a maleimide activated plate).
T6 construct: also called Peptide # 1; peptide #1
T6 peptide: SSSHPIFHRGEFSVC
In words: peptide ELISA, Ab binding signal; peptide #1, N-terminus, 1-15.

For assay [11], the target named is T7, synthetic hNGF peptide 33582-27-20 QAAWRFIRIDTAAVC (96-110) (human, conjugated through cysteine to a maleimide activated plate).
T7 construct: also called Peptide # 20
T7 peptide: QAAWRFIRIDTAAVC
The assay is described as follows: peptide ELISA, Ab binding signal; peptides # 20-21, C-terminus, 96-115.

Assay [12] addresses T8, synthetic hNGF peptide 33582-27-21 FIRIDTAAVAVLSRKC (101-115) (human, C-terminal cysteine tail, conjugated to a maleimide activated plate).
T8 construct: also called Peptide # 21
T8 peptide: FIRIDTAAVAVLSRKC
The assay is described as above.

The target of assay [13] is T9, synthetic hNGF peptide 33582-27-16 WNSYATTTHTFVKALC (76-90) (human, C-terminal cysteine tail, conjugated to a maleimide activated plate).
T9 construct: also called Peptide # 16; peptide #16
T9 peptide: WNSYATTTHTFVKALC
The assay is described as follows: peptide ELISA, Ab binding signal; peptide #16, internal, 76-90.

For assay [14], the target named is T10, synthetic hNGF peptide 33582-27-10 NSVFKQYFFETKARDC (46-60) (human, C-terminal cysteine tail, conjugated to a maleimide activated plate).
T10 construct: also called Peptide # 10; peptide #10
T10 peptide: NSVFKQYFFETKARDC
The assay is described as follows: peptide ELISA, Ab binding signal; peptide #10, L2, 46-60.

The target of assay [15] is T11, synthetic hNGF peptide 33582-27-18 FVKALTMDGKQAAWRC (86-100) (human, C-terminal cysteine tail, conjugated to a maleimide activated plate).
T11 construct: also called Peptide # 18
T11 peptide: FVKALTMDGKQAAWRC
In words: ELISA, peptide conjugated to maleimide plate, 4D4.IgG1 at 0, 3, 10, 30 ug/ml, anti-hFc-HRP.

Assay [16] addresses T12, synthetic hNGF peptide 33582-27-17 TTTHTFVKALTMDGKC (81-95) (human, C-terminal cysteine tail, conjugated to a maleimide activated plate).
T12 construct: also called Peptide # 17; peptide #17
T12 peptide: TTTHTFVKALTMDGKC
In words: peptide ELISA, Ab binding signal; peptide #17, L4, 81-95.

For assay [17], the target named is T13, synthetic hNGF peptide 33582-27-19 TMDGKQAAWRFIRIDC (91-105) (human, C-terminal cysteine tail, conjugated to a maleimide activated plate).
T13 construct: also called Peptide # 19; peptide #19
T13 peptide: TMDGKQAAWRFIRIDC
In words: peptide ELISA, Ab binding signal; peptide #19, internal, 91-105.

Chain of recombinant rat beta-NGF (R&D Systems) (P25427 122-241 limits assumed): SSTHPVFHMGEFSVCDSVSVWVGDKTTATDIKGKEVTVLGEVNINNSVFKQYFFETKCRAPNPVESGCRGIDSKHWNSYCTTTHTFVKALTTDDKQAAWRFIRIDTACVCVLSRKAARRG

B1: anti-NGF antibody 14D10 (antibody, V domains shown)
VH: EVQLVESGGGLVQPGRSLRLSCTASGFTFEDYAMHWVRQAPGKGLEWVSGISWNRGIIGYADSVKGRFTVSRDNAKNSLYLQMNSLRAEDTALYYCAKEGYYGSGRPGYFYYVMDVWGQGTTVTVSS
VL: EIVLTQSPGTLSLSPGERATLSCRASQSVSSGFLAWFQQKPGQAPRLLIYGASSRATAIPDRFSGSGSGTDFTLTISRLEPEDFAVYYCQQYGSSPYTFGQGTKLEIK
B1: in [1], the IC50 @ rNGF (nM), DRG neuron NGF neutralization assay; clone 14D10 is greater than 13 nM. Moreover, the IC50 @ hNGF (nM), DRG neuron NGF neutralization assay; clone 14D10 in [2] was 0.392 nM.

B2: anti-NGF antibody 14D11 (antibody, V domains shown)
VH: EVQLVQSGAEVKKPGESLKISCKGSGYNFTTYWIGWVRQMPGKGLEWMGIIYPGDSDTKYSPSFQGQVTISADKSISTAYLQWSSLKASDTAMYYCARNYYGSGTYYYYYGMNVWGQGTTVTVSS
VL: DIQMTQSPSSVSASVGDRVTITCRASQGISIWLAWYQHKPGKAPKLLIYAASSLQSGVPSRFSGSGSGTDFTLTISSLQPEDFATYYCQQANSFPWTFGQGTKVEIK
With B2, the IC50 @ rNGF (nM), DRG neuron NGF neutralization assay; clone 14D11 in [1] is greater than 20 nM. In assay [2], the IC50 @ hNGF (nM), DRG neuron NGF neutralization assay; clone 14D11 is 0.28 nM.

B3: anti-NGF monoclonal antibody 4D4 (antibody, V domains shown)
VH: EVQLVESGGGLVQPGGSLRLSCAASGFTLRSYSMNWVRQAPGKGLEWVSYISRSSHTIFYADSVKGRFTISRDNAKNSLYLQMDSLRDEDTAMYYCARVYSSGWHVSDYFDYWGQGILVTVSS
VL: AIQLTQSPSSLSASVGDRVTITCRASQGISSALAWYQQKPGKAPKLLIYDASSLESGVPSRFSGSGSGTDFTLTISSLQPEDFATYYCQQFNSYPLTFGGGTKVEIK
notes: also called 4D4.D7; #124 (parent)
For B3, the binding result in assay [3], in assay [5], in assay [7] and in assay [8] was “binds” each time. In addition, in assay [4], the Kd was roughly 0.004 nM. For the same molecule, the “IC50, inhibition of NGF-induced VR1 expression in rat DRG neurons; sample 119 (from 124)” value in [6] is less than 1.2 nM. The “IC50, inhibition of NGF-induced VR1 expression in rat DRG neurons; sample 124 (parent)” value in assay [6] was less than 0.57 nM. Besides, the “IC50, inhibition of NGF-induced VR1 expression in rat DRG neurons; sample 125 (from 124)” value in assay [6] was less than 0.3 nM. Moreover, in assay [6], the “IC50, inhibition of NGF-induced VR1 expression in rat DRG neurons; sample 167 (from same sample as 124)” value was 0.5 nM.

B4: 4D4.IgG1 (recombinant anti-NGF 4D4 antibody with IgG1 heavy chain constant region) (antibody, V domains shown)
VH: EVQLVESGGGLVQPGGSLRLSCAASGFTLRSYSMNWVRQAPGKGLEWVSYISRSSHTIFYADSVKGRFTISRDNAKNSLYLQMDSLRDEDTAMYYCARVYSSGWHVSDYFDYWGQGILVTVSS
VL: AIQLTQSPSSLSASVGDRVTITCRASQGISSALAWYQQKPGKAPKLLIYDASSLESGVPSRFSGSGSGTDFTLTISSLQPEDFATYYCQQFNSYPLTFGGGTKVEIKR
notes: also called 4D4.IgG1.S; human anti-hNGF Ab 4D4.IgG1
Turning to B4, in assay [1], the “IC50 @ rNGF (nM), DRG neuron based NGF neutralization bioassay; 4D4.IgG1.R” value is greater than 34 nM. Further, the “IC50 @ rNGF (nM), DRG neuron based NGF neutralization bioassay; 4D4.IgG1.S” value in assay [1] is greater than 45 nM. Moreover, the “IC50 @ hNGF (nM), DRG neuron based NGF neutralization bioassay; 4D4.IgG1.R” value in assay [9] came to 0.149 nM. In assay [9], the “IC50 @ hNGF (nM), DRG neuron based NGF neutralization bioassay; 4D4.IgG1.S” value came out at 0.159 nM. The binding result in assay [10], in assay [11], in [12], in assay [13], in assay [14] and in [15] was “binds” in each case. The binding result in [16] and in assay [17] was “binds” each time.
